Where no end group is shown, it is not given here.
Molecular target: T1, F2R like trypsin receptor 1 (PAR2) (UniProt P55085 37-397)
T1 sequence (looked up): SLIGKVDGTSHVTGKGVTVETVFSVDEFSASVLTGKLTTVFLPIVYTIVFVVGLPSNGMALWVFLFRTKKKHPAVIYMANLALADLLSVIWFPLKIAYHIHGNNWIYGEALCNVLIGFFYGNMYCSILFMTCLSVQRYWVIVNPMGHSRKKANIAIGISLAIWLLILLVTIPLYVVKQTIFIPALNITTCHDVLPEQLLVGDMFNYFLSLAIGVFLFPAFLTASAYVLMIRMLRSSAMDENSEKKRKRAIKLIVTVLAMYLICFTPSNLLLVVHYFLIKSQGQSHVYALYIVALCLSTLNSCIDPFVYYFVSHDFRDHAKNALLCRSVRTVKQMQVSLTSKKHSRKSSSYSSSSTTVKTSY
Assay: cell-based or functional assay

**Q.** For SLIGKV, which “EC50 SLIGKV calcium assay” value is on record?
**A.** The value was 1.67 µM.

**Q.** What about the “EC50 SLIGKV ß-Arrestin assay” value of the same binder?
**A.** Its value is 4.83 µM.

**Q.** With SLIGRL-NH2 [SLIGRL-NH2] as the binder, how does the “EC50 SLIGRL-NH2 calcium assay” value read?
**A.** The value was 4.06 µM.

**Q.** What about the “EC50 SLIGRL-NH2 ß-Arrestin assay” value of the same binder?
**A.** Its value is 12.7 µM.

From patent US20190359686A1 (INNOVATIVE TECHNOLOGIES IN BIOLOGICAL SYSTEMS SL, published 2019)
